Measured values published in article PMC11375530, “The 8‐oxoguanine DNA glycosylase‐synaptotagmin 7 pathway increases extracellular vesicle release and promotes tumour metastasis during oxidative stress”.

Molecular target: OGG1 (8-oxoguanine DNA glycosylase) (UniProt O15527 1-345)
Assay: EMSA; EMSA: DNA-binding buffer (composition not given), 10 min on ice then 10 min at 37 C, 7% native PAGE in 1x TBE; pull-down: 4 C, 12 h, 1 mM PMSF, PBS washes
Settings: protein: commercial; label: 5'-FAM on strand 2; blunt

Chain of OGG1 (8-oxoguanine DNA glycosylase) (O15527 whole entry): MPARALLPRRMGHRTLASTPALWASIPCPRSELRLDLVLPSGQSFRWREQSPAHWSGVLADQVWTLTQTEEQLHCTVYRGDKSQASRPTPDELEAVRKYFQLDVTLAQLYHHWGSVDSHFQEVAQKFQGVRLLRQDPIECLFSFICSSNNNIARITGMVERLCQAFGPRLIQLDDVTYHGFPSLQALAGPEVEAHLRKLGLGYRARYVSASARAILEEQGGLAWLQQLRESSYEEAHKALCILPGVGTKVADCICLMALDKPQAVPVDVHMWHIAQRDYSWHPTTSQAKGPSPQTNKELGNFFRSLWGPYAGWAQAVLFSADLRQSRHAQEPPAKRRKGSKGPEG

B1: 8-oxoG-SYT7 (FAM) (dsDNA)
DNA 1: CGGGCGGGCGGGAGGGCTGGCGGGCGGCCCCC
DNA 2: GGGGGCCGCCCGCCAGCCCTCCCGCCCGCCCG
modifications: 8-oxoG at position 12 of strand 1 (printed ...CGGoGAGGG...)
- binding result: binds
